Source: patent US8450481B2, “Compounds for inhibiting protein aggregation, and methods for making and using them” (The Regents of the University of California, priority 2007, dated 2013)

Tests used:
[1] = system: HEK293T cells expressing α-syn; assay: ion currents in HEK293T cells expressing α-syn; type: cell-based; details: extracellular application of 500 μM Zn^2+, +80 mv
Excerpt: FIG. 3K, FIG. 3L and FIG. 3M graphically illustrate data showing representative currents elicited by depolarizing the cells from a holding potential of −50 mv to a series of test potentials ranging from −80 to +80 mv, and corresponding current-voltage relationship (E; means±SE) in transduced cells. Cells expressing α-syn display a significant increase in ion currents. FIG. 3N left panel graphically illustrates representative currents at +80 mv (left panel) before (Cont), during (Zn^2+) and after (Wash) application of 500 μM Zn^2+. FIG. 3N, right panel, graphically illustrates the time course of the change in current density before, during, and after extracellular application of Zn^2+. The arrows correspond to the currents shown in the left panel (Cont, a; Zn^2+, b; and Washout, c). The increased currents in cells expressing α-syn are attenuated by Zn^2+.

SYN [2] = target: T1, SYN (Homo sapiens, UniProt P37840); assay: cell free SYN aggregation assay with immunoblot; type: biochemical; details: for blocking SYN aggregation in cell free system, compared with the other peptides and controls: immunoblot
Procedure: The peptides of the invention were tested in a cell free system with the appropriate controls (smaller and larger peptides, amino acid (aa) substitutions, scrambled sequence). For this purpose recombinant SYN (10 uM) was incubated at 37 and 65 degrees C. for 0, 4, 6, 12 and 24 with the peptides at 0, 1 and 10 uM. Control experiments where performed with beta and gamma-synuclein as well as with a mutant SYN molecule that cannot bind the peptide. The mixture was run in a gel, followed by immunoblot testing with SYN antibodies.

[3] = system: neuronal cultures overexpressing α-syn; assay: neuronal viability by LDH assay in neuronal cultures overexpressing α-syn; type: cell-based
Excerpt: FIG. 17 illustrates the effects of a peptide blocker of α-syn aggregation of this invention in neuronal viability.

[4] = system: neuronal cultures overexpressing α-syn; assay: intracellular calcium influx by Fluo-4 and FLIPR assay in neuronal cultures overexpressing α-syn; type: cell-based; details: after 24 hrs at 37° C., compared to vehicle and scrambled peptide controls
Excerpt: FIG. 18 illustrates the effects of a peptide blocker of α-syn aggregation of this invention in neuronal calcium levels. FIG. 18A is a micrograph illustration showing that in neuronal cultures overexpressing α-syn there is a significant time dependent increase in intracellular calcium influx as determined by Fluo-4 and the FLIPR assay. […] (arrow) compared to vehicle and scrambled peptide controls. Data from these studies is graphically summarized on the right hand panels.

SYN [5] = target: T1, SYN; assay: α-syn aggregation/accumulation in neuronal cultures overexpressing α-syn (B103 neuronal cell line, lentivirus SYN); type: cell-based; design: expressed in transfected cells; host or cells: B103 neuronal cell line, lentiviral transduction; details: 24 hrs
Procedure: The B103 neuronal cell line was infected with a lentivirus expressing SYN (wildtype) or GFP (control) and cells expressing SYN were exposed to the peptides at 0, 1 and 10 uM for 24 hrs. Cells were assayed for SYN aggregation by immunoblot, neurite outgrowth and survival. […] The peptide KKDQLGK (SEQ ID NO:1) and control peptides can be injected into the brain of SYN transgenic (tg) mice to test for in vivo effects.

α-syn = target: T2, α-syn (Homo sapiens, UniProt P37840); assay: intraventricular infusion in α-syn transgenic mice; type: in vivo
T2 construct: from tissue; host or cells: brain (hippocampus) of thy1-α-syn transgenic mice
Procedure: FIG. 19 illustrates the effects of peptide blocker of α-syn aggregation in vivo in α-syn (α-syn) transgenic mice. FIG. 19A illustrates the experimental design: for these studies the thy1-overexpressing α-syn received intraventricular infusions with osmotic minipumps of control scrambled peptide, or the exemplary peptide of this invention 96-102 KKDQLGK (SEQ ID NO:1) for 6 weeks, at 30 μM peptide, where 200 μl of solution is minipumped into the lateral ventricle of the animal.

[Zn+2] [Zn^2+]
increased ion currents in cells expressing α-syn [1]: attenuated

EKTKEQVTN [amino acids 57-65 of SYN]
blocking SYN aggregation in cell free system, compared with the other peptides and controls (SYN [2]): most effective at blocking SYN aggregation

KKDQLGK [amino acids 96-102 of human SYN]
neuronal viability as assayed by the LDH assay [3]: improved neuronal viability | neuronal calcium influx [4]: reduced neuronal calcium influx | blocking SYN aggregation in neuronal cell based system, compared with the other peptides and controls (SYN [5]; immunoblot, B103 cells expressing SYN): most effective at blocking SYN aggregation | α-syn accumulation in neuronal cultures overexpressing α-syn (SYN [5]; peptide at 1 uM, compared to vehicle): reduced accumulation of α-syn dimer | levels of monomeric and aggregated α-syn, immunoblot (α-syn; infusion, compared to scrambled peptide controls): significant reduction | neuronal α-syn accumulation in the hippocampus (α-syn; intraventricular infusion 6 weeks, 30 μM peptide, compared to scrambled peptide): significant reduction in neuronal α-syn accumulation | α-syn aggregation, cell free immunoblot assays (SYN [2]; at 37° C. and 65° C.): reduced aggregation | blocking SYN aggregation in cell free system, compared with the other peptides and controls (SYN [2]): most effective at blocking SYN aggregation
